Measurements taken from the supplement of paper PMC10899765.

How the values were obtained:
Settings in all cases: 20 nM; 72 h
[1] = tested on: MCF10A; test: percent viability (nuclei count relative to siNT); higher = more viable cells
Method: (§1)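 After 72 h, cells were fixed and stained with Hoechst and anti-fibrillarin, and nucleoli per nucleus were counted with CellProfiler. Values are plate-adjusted percent effect for the one-nucleolus and 5+ nucleoli phenotypes, normalised to siNT (0%) and to the positive controls siNOL11 or siKIF11 (100%), as the mean of biological triplicates. Percent viability is the nuclei count relative to siNT.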

[2] = tested on: MCF10A; test: one-nucleolus phenotype percent effect (relative to siNT 0% and siNOL11 100%); higher = more cells with one nucleolus (ribosome biogenesis inhibition)
Method: as §1

[3] = tested on: MCF10A; test: 5+ nucleoli phenotype percent effect (relative to siNT 0% and siKIF11 100%); higher = more cells with five or more nucleoli
Method: as §1

Sequence | percent viability [1] [%] | one-nucleolus phenotype percent effect [2] [%] | 5+ nucleoli phenotype percent effect [3] [%]
CCGCCUGAGCUAGCUGUGG [hsa-miR-6078] | 89.3 | -22.1 | 38.1
CCGCCUUCUCUCCUCCCCCAG [hsa-miR-6880-3p] | 117 | -31.4 | 65.6
CCGCUCUUCCCCUGACCCCAG [hsa-miR-6812-3p] | 163 | -35.5 | 54.6
CCGCUUUCUGAGCUGGAC [hsa-miR-4315] | 25.2 | 34.8 | -27.2
CCGGCAUGUCCAGGGCA [hsa-miR-4304] | 25.4 | 14.3 | 3.17
CCGGCCGCCGGCUCCGCCCCG [hsa-miR-1908-3p] | 96 | -14.6 | 44.4
CCGGGAGAAGGAGGUGGCCUGG [hsa-miR-6746-5p] | 50.3 | -15.9 | 61.4
CCGGGGCAGAUUGGUGUAGGGUG [hsa-miR-5090] | 82 | -10.2 | 24.7
CCGGUCCCAGGAGAACCUGCAGA [hsa-miR-4746-5p] | 45.1 | 11.9 | 8.72
CCGGUUCCAGUCCCUGGAG [hsa-miR-6070] | 55.6 | 16.9 | -6.27
CCGUGUUUCCCCCACGCUUU [hsa-miR-3676-3p] | 72.3 | 4.15 | -17.2
CCUAAUUUGAACACCUUCGGUA [hsa-miR-4735-5p] | 80.8 | -11.3 | 8.71
CCUAGAAACUGUAAACUUAGUC [hsa-miR-8067] | 108 | -35.3 | 47.4
CCUAGACACCUCCAGUUC [hsa-miR-4305] | 39.4 | -1.35 | -1.06
CCUAGUAGGUGUCCAGUAAGUGU [hsa-miR-325] | 58 | -12.1 | 25
CCUAUUCUUGAUUACUUGUUUC [hsa-miR-26a-2-3p] | 138 | -7.71 | 2.15
CCUAUUCUUGGUUACUUGCACG [hsa-miR-26a-1-3p] | 49.7 | 4.57 | -5.8
CCUCAAAUGUGGAGCACUAUUCU [hsa-miR-372-5p] | 140 | -27.9 | 77.2
CCUCACCACCCCUUCUGCCUGCA [hsa-miR-6511b-3p] | 69.7 | -22.7 | 22.9
CCUCACCAUCCCUUCUGCCUGC [hsa-miR-6511a-3p] | 41.3 | -11.2 | 24.1
CCUCACCCAGCUCUCUGGCCCUCU [hsa-miR-6862-3p] | 72 | -26.5 | 15.4
CCUCAGAUCAGAGCCUUGC [hsa-miR-4330] | 91.9 | -32.8 | 59.5
CCUCAGGGCUGUAGAACAGGGCU [hsa-miR-1266] | 49.2 | 12.6 | 16.1
CCUCCAAAGGGAAGCGCUUUCUGUU [hsa-miR-519d-5p] | 65.3 | -10.6 | 21.8
CCUCCCACACCCAAGGCUUGCA [hsa-miR-532-3p] | 38.6 | 5.19 | 23.9
CCUCCCAUGCCAAGAACUCCC [hsa-miR-2116-3p] | 95.6 | -24.7 | 58.4
CCUCCCUGCCCGCCUCUCUGCAG [hsa-miR-7113-3p] | 70.5 | -20.6 | 57.3
CCUCCGUGUUACCUGUCCUCUAG [hsa-miR-3605-3p] | 92.7 | 0.086 | -3.31
CCUCCUGAUGAUUCUUCUUC [hsa-miR-3653-5p] | 159 | -22.7 | 32.7
